“And” between values parts separate entries of the source, which are not always exact repeats. Identical values can stand only once.

The target of data set [1] is T1, Solute carrier family 22 member 2 (Homo sapiens, UniProt O15244).
T1 sequence (O15244 whole entry): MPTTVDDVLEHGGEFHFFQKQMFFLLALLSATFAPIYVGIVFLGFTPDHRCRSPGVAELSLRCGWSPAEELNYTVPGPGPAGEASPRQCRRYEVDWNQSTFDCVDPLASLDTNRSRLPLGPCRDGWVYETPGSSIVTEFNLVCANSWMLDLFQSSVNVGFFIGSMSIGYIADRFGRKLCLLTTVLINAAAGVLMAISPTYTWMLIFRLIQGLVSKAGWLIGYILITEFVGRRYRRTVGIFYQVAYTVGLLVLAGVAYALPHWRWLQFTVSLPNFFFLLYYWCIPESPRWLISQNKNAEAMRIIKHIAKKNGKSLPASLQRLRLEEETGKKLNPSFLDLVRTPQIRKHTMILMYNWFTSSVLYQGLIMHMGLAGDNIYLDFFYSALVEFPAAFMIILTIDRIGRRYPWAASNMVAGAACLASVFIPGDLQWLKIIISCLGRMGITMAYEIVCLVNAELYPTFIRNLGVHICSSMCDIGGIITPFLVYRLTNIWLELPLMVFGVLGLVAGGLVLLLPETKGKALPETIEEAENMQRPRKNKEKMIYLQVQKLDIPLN
Description: TP_TRANSPORTER: uptake in OCT2-expressing HEK293 cells. Format: functional, cell-based.

The target of data set [2] is T1, Solute carrier family 22 member 2. Put plainly: TP_TRANSPORTER: inhibition of Dopamine uptake (Dopamine: 200 uM) in Xenopus laevis oocytes. Type of data set: functional, cell-based, Oocyte.
Substrate in data set [3]: CC12CC3CC(C)(C1)CC(N)(C3)C2
Put plainly: (§1) TP_TRANSPORTER: uptake (electrogenesis) in Xenopus laevis oocytes. Type of data set: functional, cell-based, Oocyte.

Substrate in data set [4]: NC12CC3CC(CC(C3)C1)C2
Described as §1. Type of data set: functional, cell-based, Oocyte.

Substrate in data set [5]: NCCc1c[nH]c2ccc(O)cc12
Put plainly: (§2) TP_TRANSPORTER: uptake in Xenopus laevis oocytes. Format: functional, cell-based, Oocyte.

Substrate in data set [6]: NC[C@H](O)c1ccc(O)c(O)c1
The data set is described as §2. Format: functional, cell-based, Oocyte.

Substrate in data set [7]: NCCc1c[nH]cn1
Description: cells, lysate or membranes named.

Substrate in data set [8]: NCCc1ccc(O)c(O)c1
Put plainly: cells, lysate or membranes named.

Regarding `C[n+]1ccc(-c2ccccc2)cc1`, the Km (as a rule, the substrate concentration at which the rate is half of its maximum) in data set [1] is 16 µM.
With `NC12CC3CC(CC(C3)C1)C2` [AMANTADINE], in data set [2], the half-inhibitory concentration (IC50) (in general, the midpoint of a concentration-inhibition curve) was 23 µM.

B1: Solute carrier family 22 member 2 (Homo sapiens) (protein)
chain: T1 sequence (O15244 whole entry)
Take B1: the Km in data set [3] was 34 µM; in data set [4], 27 µM; in data set [5] it was 80 µM; in data set [6], 1900 µM; in data set [7] it was 1300 µM; in data set [8] it was 330 µM and 390 µM and 520 µM.

The values above are taken from ChEMBL document CHEMBL2074348, “Human neurons express the polyspecific cation transporter hOCT2, which translocates monoamine neurotransmitters, amantadine, and memantine” (Mol Pharmacol, 1998).
